Data reported in patent US20160075781A1 (IMMUNOGEN, published 2016).

Molecular target: T1, human folate receptor 1 (human, UniProt P15328 25-234)
Test: cell-based or functional assay

T1 sequence (P15328 25-234 limits assumed): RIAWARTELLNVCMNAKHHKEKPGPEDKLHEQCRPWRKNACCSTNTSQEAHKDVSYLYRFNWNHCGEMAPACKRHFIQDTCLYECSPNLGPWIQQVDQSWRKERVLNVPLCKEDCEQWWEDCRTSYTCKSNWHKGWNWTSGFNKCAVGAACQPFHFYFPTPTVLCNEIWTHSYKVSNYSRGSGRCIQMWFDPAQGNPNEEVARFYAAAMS

Binder	IC50, cytotoxic activity of the PEG4-mal-DM4 conjugate on KB cells, continuous exposure (WST-8 survival) [nM]
muFR1-21 PEG4-mal-DM4 conjugate (antibody, mouse IgG2b, kappa, V domains shown, DM4 linked through PEG4-mal; sites not given) VH: EVKLVESGGDLVKPGGSLKLSCAASGFTFSSYGMSWVRQTPDKRLECVATISSGGSYTYYPDGVKGRFTISRDNAKNTLYLQMSSLKSEDTAMYYCARDGEGGLYAMDYWGQGTSVTVSS VL: DIQMTQSSSYLSVSLGGRVTITCKASDHINNWLAWYQQKPGNAPRLLISGATSLETGVPSRFSGSGSGKDYTLSISSLQTEDVATYYCQQYWSTPFTFGSGTKLEIKR	0.1
huFR1-21-PEG4-mal-DM4 (antibody, human IgG1, kappa, V domains shown, maytansinoid DM4 attached through the PEG4-mal linker; residues and chain not stated) VH: EVQLVESGGDVVKPGGSLKLSCAASGFTFSSYGMSWVRQTPGKGLECVATISSGGSYTYYSPGFQGRFTISRDKSKNTLYLQMSSLKAEDTAMYYCARDGEGGLYAMDYWGQGTSVTVSS VL: DIQMTQSSSSLSVSVGGRVTITCKASDHINNWLAWYQQKPGKAPKLLISGATSLETGVPSRFSGSGSGKDYTLSISSLQPEDVATYYCQQYWSTPFTFGQGTKLEIKR	0.1
huMov19-PEG4-mal-DM4 (antibody, V domains shown, maytansinoid DM4 attached through the PEG4-mal linker; residues and chain not stated) VH: QVQLVQSGAEVVKPGASVKISCKASGYTFTGYFMNWVKQSPGQSLEWIGRIHPYDGDTFYNQKFQGKATLTVDKSSNTAHMELLSLTSEDFAVYYCTRYDGSRAMDYWGQGTTVTVSS VL: DIVLTQSPLSLAVSLGQPAIISCKASQSVSFAGTSLMHWYHQKPGQQPRLLIYRASNLEAGVPDRFSGSGSKTDFTLNISPVEAEDAATYYCQQSREYPYTFGGGTKLEIKR	0.15

Molecular target: T1, human folate receptor 1
Test: flow cytometry on FOLR1-expressing SKOV3 cells; apparent Kd from the fit of MFI against antibody concentration
Description: Binding affinities of anti-FOLR1 antibodies and of their SPDB-DM4, PEG4Mal-DM4, SMCC-DM1, or anti-FOLR1-sulfo-SPDB-DM4 conjugates were assayed by Flow Cytometry. FOLR1-expressing SKOV3 cells were incubated with varying concentrations of anti-FOLR1 antibodies or their conjugates and processed as described above for flow cytometry analysis. Data analysis was performed using CellQuest Pro (BD Biosciences, San Diego, US) and for each sample the mean fluorescence intensity for FL1 (MFI) was exported and plotted against the antibody concentration in a semi-log plot. A dose-response curve was generated by non-linear regression and the value for the apparent equilibrium dissociation constant (Kd) of the test-samples for the binding to SKOV3 cells was calculated using GraphPad Prism v4 (GraphPad software, San Diego, Calif.) and presented in FIG. 5.

Binder	Kd [nM]
huFR1-21 (antibody, human IgG1, kappa, V domains shown, unconjugated humanized FR1-21; also called humanized FR1-21) VH: EVQLVESGGDVVKPGGSLKLSCAASGFTFSSYGMSWVRQTPGKGLECVATISSGGSYTYYSPGFQGRFTISRDKSKNTLYLQMSSLKAEDTAMYYCARDGEGGLYAMDYWGQGTSVTVSS VL: DIQMTQSSSSLSVSVGGRVTITCKASDHINNWLAWYQQKPGKAPKLLISGATSLETGVPSRFSGSGSGKDYTLSISSLQPEDVATYYCQQYWSTPFTFGQGTKLEIKR	0.07
muFR1-21 (antibody, mouse IgG2b, kappa, V domains shown, murine anti-FOLR1 antibody; also called murine FR1-21) VH: EVKLVESGGDLVKPGGSLKLSCAASGFTFSSYGMSWVRQTPDKRLECVATISSGGSYTYYPDGVKGRFTISRDNAKNTLYLQMSSLKSEDTAMYYCARDGEGGLYAMDYWGQGTSVTVSS VL: DIQMTQSSSYLSVSLGGRVTITCKASDHINNWLAWYQQKPGNAPRLLISGATSLETGVPSRFSGSGSGKDYTLSISSLQTEDVATYYCQQYWSTPFTFGSGTKLEIKR	0.07
muFR1-9 (antibody, V domains shown) VH: QVQLVESGGGLVQPGGSRKLSCAASGFTFSSFGMHWVRQAPEKGLEWVAYISSGSSTFYYADTVKGRFTISRDNPKNTLFLQMTSLRSEDTAMYYCAKELTGTFAYWGQGTLVTVSA VL: DIVLTQSPATLSVTPGDSVSLSCRASQSINNNLHWYQQKSHESPRLLIKYASQSISGIPSRFSGSGSGTDFTLSINSVETEDFGMYFCQQSNSWPQVTFGAGTKLELKR	0.13
muFR1-13 (antibody, V domains shown) VH: QVQLKESGPDLVAPSQSLSITCTVSGFSLSRYSVHWIRQPPGKGLEWLGMIWSGGNTDYNSVFKSRLNITKDNSKSQVFLKMNSLQTDDTAIYYCATFDGKVSWFAYWGQGTLVTVSA VL: SIVMTQTPKFLLVSTGDRFTITCKASQSVSNDVLWYQQKPGQSPKLLIYYAYNRYSGVPDRFTGSGYGTDFTFTITTVQSEDLAVYFCQQDHSSPFTFGSGTKLEIKR	0.66
huMov19 (antibody, V domains shown, Resurfaced humanized Mov19, full IgG1/kappa; also called humanized Mov19) VH: QVQLVQSGAEVVKPGASVKISCKASGYTFTGYFMNWVKQSPGQSLEWIGRIHPYDGDTFYNQKFQGKATLTVDKSSNTAHMELLSLTSEDFAVYYCTRYDGSRAMDYWGQGTTVTVSS VL: DIVLTQSPLSLAVSLGQPAIISCKASQSVSFAGTSLMHWYHQKPGQQPRLLIYRASNLEAGVPDRFSGSGSKTDFTLNISPVEAEDAATYYCQQSREYPYTFGGGTKLEIKR	0.07

Molecular target: T1, human folate receptor 1
Test: apparent affinity, flow cytometry on FOLR1-expressing cells ('as described above'; cell line not named in Example 19, SKOV3 in Example 13)

Binder	Kd [nM]
huFR1-57 (antibody, human IgG1, kappa, V domains shown) VH: EVQLVESGGGLVQPGGSRRLSCAASGFTFSSFGMHWVRQAPGKGLEWVAYISSGSSTISYADSVKGRFTISRDNSKKTLLLQMTSLRAEDTAMYYCAREAYGSSMEYWGQGTLVTVSS VL: EIVLTQSPATLSVTPGDRVSLSCRASQNINNNLHWYQQKPGQSPRLLIKYVSQSVSGIPDRFSGSGSGTDFTLSISSVEPEDFGMYFCQQSNSWPHYTFGQGTKLEIKR	0.14
huFR1-48 (antibody, human IgG1, kappa, V domains shown) VH: QVQLVQSGAEVAKPGASVKLSCKASGYTFTNYWMQWIKQRPGQGLEWIGAIYPGNGDSRYTQKFQGKATLTADKSSSTAYMQVSSLTSEDSAVYYCARRDGNYAAYWGQGTLVTVSA VL: DIQMTQSPSSLSVSVGERVTITCRASENIYSNLAWYQQKPGKSPKLLVYAATNLADGVPSRFSGSESGTDYSLKINSLQPEDFGSYYCQHFWASPYTFGQGTKLEIKR	0.13
huFR1-49 (antibody, human IgG1, kappa, V domains shown) VH: QVQLQQSGAVVAKPGASVKMSCKASGYTFTNYWMYWIKQRPGQGLELIGAIYPGNSDTTYNQKFQGKATLTAVTSANTVYMEVSSLTSEDSAVYYCTKRHDYGAMDYWGQGTSVTVSS VL: DIQMTQSPSSLSVSVGERVTITCRASENIYTNLAWYQQKPGKSPKLLVYTASNLADGVPSRFSGSGSGTDYSLKINSLQPEDFGTYYCQHFWVSPYTFGQGTKLEIKR	0.08
huFR1-65 (antibody, human IgG1, kappa, V domains shown) VH: QVQLVQSGAEVAKPGASVKMSCKASGYTFTSYTMHWVKQRPGQGLAWIGYINPISGYTNYNQKFQGKATLTADKSSSTAYMQLNSLTSEDSAVYYCASGGAYGRKPMDYWGQGTSVTVSS VL: EIVMTQSPATMSTSPGDRVSVTCKASQNVGPNVAWYQQKPGQSPRALIYSASYRYSGVPARFTGSGSGTDFTLTISNMQSEDLAEYFCQQYNSYPYTFGQGTKLEIKR	0.15
huMov19 (antibody, V domains shown, Resurfaced humanized Mov19, full IgG1/kappa; also called humanized Mov19) VH: QVQLVQSGAEVVKPGASVKISCKASGYTFTGYFMNWVKQSPGQSLEWIGRIHPYDGDTFYNQKFQGKATLTVDKSSNTAHMELLSLTSEDFAVYYCTRYDGSRAMDYWGQGTTVTVSS VL: DIVLTQSPLSLAVSLGQPAIISCKASQSVSFAGTSLMHWYHQKPGQQPRLLIYRASNLEAGVPDRFSGSGSKTDFTLNISPVEAEDAATYYCQQSREYPYTFGGGTKLEIKR	0.06
